Reference: paper PMC4273445 (eLife, 2014)

Key:
Test in all cases: SPR
[1] = target: fHbp V1.1 Gln103 to Ala (N. meningitidis)
[2] = target: fHbp V1.1 Lys191 to Ala (N. meningitidis)
[3] = target: fHbp 1.P61 (N. meningitidis) (UniProt E6MV22)
[4] = target: fHbp V2.21 Ser (at V1 Ser104) to Ala (N. meningitidis)
[5] = target: fHbp V1.1 Glu183 to Ala (N. meningitidis)
[6] = target: fHbp V3.28 Lys (at V1 Lys264) to Ala (N. meningitidis)
[7] = target: fHbp V1.1 Glu109 to Ala (N. meningitidis)
[8] = target: fHbp V2.21 Leu (at V1 Phe174) to Ala (N. meningitidis)
[9] = target: fHbp V3.28 Glu (at V1 Asp262) to Ala (N. meningitidis)
[10] = target: fHbp V3.28 Asn (at V1 Asn108) to Ala (N. meningitidis)
[11] = target: fHbp V2.21 Val (at V1 Ile196) to Ala (N. meningitidis)
[12] = target: fHbp V1.1 Leu289 to Ala (N. meningitidis)
[13] = target: fHbp V3.28 Ala (at V1 Glu157) to Glu (N. meningitidis)
[14] = target: fHbp V2.21 His (at V1 Ser288) to Ala (N. meningitidis)
[15] = target: fHbp V1.1 Ile196 to Ala (N. meningitidis)
[16] = target: fHbp V2.21 Ile (at V1 Ile273) to Ala (N. meningitidis)
[17] = target: fHbp V3.28 Asn (at V1 Gln180) to Ala (N. meningitidis)
[18] = target: fHbp V3.28 Thr (at V1 Ser185) to Ala (N. meningitidis)
[19] = target: fHbp V3.28 Ile (at V1 Ile273) to Ala (N. meningitidis)
[20] = target: fHbp V2.21 Asp (at V1 Asp150) to Ala (N. meningitidis)
[21] = target: fHbp V2.21 Ser (at V1 Gln193) to Ala (N. meningitidis)
[22] = target: fHbp V2.21 Lys (at V1 His184) to Ala (N. meningitidis)
[23] = target: fHbp 3.P45 (N. meningitidis) (UniProt E6MV22)
[24] = target: fHbp V1.1 His248 to Ala (N. meningitidis)
[25] = target: fHbp V2.21 Ile (at V1 Ile154) to Ala (N. meningitidis)
[26] = target: fHbp V1.1 Asp181 to Ala (N. meningitidis)
[27] = target: fHbp V3.28 Phe (at V1 Phe292) to Ala (N. meningitidis)
[28] = target: fHbp V1.1 Gln193 to Ala (N. meningitidis)
[29] = target: fHbp V1.1 Phe194 to Ala (N. meningitidis)
[30] = target: fHbp V3.28 Lys (at V1 Lys92) to Ala (N. meningitidis)
[31] = target: fHbp 2.P22 (N. meningitidis) (UniProt E6MV22)
[32] = target: fHbp V1.1 Phe292 to Ala (N. meningitidis)
[33] = target: fHbp 1.P74 (N. meningitidis) (UniProt E6MV22)
[34] = target: fHbp 1.P37 (N. meningitidis) (UniProt E6MV22)
[35] = target: fHbp V2.21 Thr (at V1 Glu304) to Ala (N. meningitidis)
[36] = target: fHbp V2.21 Lys (at V1 Lys264) to Ala (N. meningitidis)
[37] = target: fHbp V1.1 Asp266 to Ala (N. meningitidis)
[38] = target: fHbp V3.28 Glu (at V1 Glu283) to Ala (N. meningitidis)
[39] = target: fHbp V3.28 Lys (at V1 Lys268) to Ala (N. meningitidis)
[40] = target: fHbp V2.21 Pro (at V1 Ser182) to Ala (N. meningitidis)
[41] = target: fHbp V1.1 Ser185 to Ala (N. meningitidis)
[42] = target: fHbp V1.1 Lys306 to Ala (N. meningitidis)
[43] = target: fHbp V3.28 His (at V1 His248) to Ala (N. meningitidis)
[44] = target: fHbp V2.21 His (at V1 His203) to Ala (N. meningitidis)
[45] = target: fHbp V2.21 Leu (at V1 Ile199) to Ala (N. meningitidis)
[46] = target: fHbp V3.28 Thr (at V1 Ser286) to Ala (N. meningitidis)
[47] = target: fHbp V2.21 Glu (at V1 Asp262) to Ala (N. meningitidis)
[48] = target: fHbp V2.21 Glu (at V1 His313) to Ala (N. meningitidis)

Sequence of CFH67, CCP domains 6 and 7 of complement factor H (P08603 321-443): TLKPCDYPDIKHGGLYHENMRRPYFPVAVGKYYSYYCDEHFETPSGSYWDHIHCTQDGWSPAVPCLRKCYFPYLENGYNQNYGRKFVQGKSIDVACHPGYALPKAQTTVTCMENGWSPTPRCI

Question: For “CFH67, CCP domains 6 and 7 of complement factor H (from UniProt P08603 321-443) (domain or fragment)”, which Kd [1] is on record?
Answer: 7.03 nM

Question: And the Kd [2]?
Answer: 6.4 nM

Question: What about the Kd [3] of the same substance?
Answer: 2.28 nM

Question: What about the Kd [4] of the same substance?
Answer: 2.52 nM

Question: What about the Kd [5] of the same substance?
Answer: 7.02 nM

Question: What about the Kd [6] of the same substance?
Answer: 21.1 nM

Question: And the Kd [7]?
Answer: 2.93 nM

Question: And the Kd [8]?
Answer: 0.157 nM

Question: And the Kd [9]?
Answer: 6.4 nM

Question: And the Kd [10]?
Answer: 3.71 nM

Question: And the Kd [11]?
Answer: 40 nM

Question: What about the Kd [12] of the same substance?
Answer: 1.44 nM

Question: And the Kd [13]?
Answer: 37.5 nM

Question: What about the Kd [14] of the same substance?
Answer: 6.77 nM

Question: And the Kd [15]?
Answer: 1.07 nM

Question: What about the Kd [16] of the same substance?
Answer: 0.231 nM

Question: What about the Kd [17] of the same substance?
Answer: 8.49 nM

Question: What about the Kd [18] of the same substance?
Answer: 4.42 nM

Question: And the Kd [19]?
Answer: 0.201 nM

Question: And the Kd [20]?
Answer: 3.24 nM

Question: What about the Kd [21] of the same substance?
Answer: 3.95 nM

Question: What about the Kd [22] of the same substance?
Answer: 3.15 nM

Question: What about the Kd [23] of the same substance?
Answer: 0.227 nM

Question: What about the Kd [24] of the same substance?
Answer: 3.36 nM

Question: What about the Kd [25] of the same substance?
Answer: 25.8 nM

Question: What about the Kd [26] of the same substance?
Answer: 4.14 nM

Question: What about the Kd [27] of the same substance?
Answer: 1.97 nM

Question: What about the Kd [28] of the same substance?
Answer: 6.66 nM

Question: What about the Kd [29] of the same substance?
Answer: 5.04 nM

Question: What about the Kd [30] of the same substance?
Answer: 2.67 nM

Question: What about the Kd [31] of the same substance?
Answer: 2.13 nM

Question: What about the Kd [32] of the same substance?
Answer: 6.8 nM

Question: And the Kd [33]?
Answer: 5.14 nM

Question: What about the Kd [34] of the same substance?
Answer: 1.11 nM

Question: What about the Kd [35] of the same substance?
Answer: 19.2 nM

Question: What about the Kd [36] of the same substance?
Answer: 16.7 nM

Question: What about the Kd [37] of the same substance?
Answer: 3.34 nM

Question: And the Kd [38]?
Answer: 11.9 nM

Question: And the Kd [39]?
Answer: 2.61 nM

Question: And the Kd [40]?
Answer: 7.98 nM

Question: What about the Kd [41] of the same substance?
Answer: 3.09 nM

Question: And the Kd [42]?
Answer: 2.94 nM

Question: And the Kd [43]?
Answer: 2.97 nM

Question: What does the source list for “CFHR3_(12), the first two (N-terminal) CCP domains of complement factor H-related 3 (from UniProt Q02985 19-330) (domain or fragment)”?
Answer: Kd [2]: 91 nM; Kd [3]: 26.4 nM; Kd [44]: 3.81 nM; Kd [4]: 4.91 nM; Kd [5]: 81 nM; Kd [6]: 29.2 nM; Kd [7]: 27.9 nM; Kd [8]: 3.44 nM; Kd [9]: 6.86 nM; Kd [10]: 3.21 nM; Kd [45]: 11.2 nM; Kd [12]: 18.4 nM; Kd [13]: 4.35 nM; Kd [14]: 7.63 nM; Kd [15]: 35.2 nM; Kd [16]: 0.605 nM; Kd [17]: 7.86 nM; Kd [18]: 3.76 nM; Kd [19]: 0.292 nM; Kd [20]: 3.64 nM; Kd [21]: 3.38 nM; Kd [22]: 3.13 nM; Kd [23]: 0.779 nM; Kd [24]: 82.5 nM; Kd [25]: 14.8 nM; Kd [46]: 33.1 nM; Kd [26]: 52.5 nM; Kd [27]: 2.91 nM; Kd [28]: 158 nM; Kd [29]: 160 nM; Kd [30]: 3.39 nM; Kd [31]: 2.58 nM; Kd [33]: 56.9 nM; Kd [34]: 7.52 nM; Kd [35]: 16.3 nM; Kd [36]: 30.2 nM; Kd [37]: 82.6 nM; Kd [38]: 20.6 nM; Kd [47]: 5.43 nM; Kd [48]: 0.723 nM; Kd [39]: 3.2 nM; Kd [40]: 5.84 nM; Kd [41]: 78.5 nM; Kd [42]: 57.7 nM; Kd [43]: 3.61 nM
